Reference: publication PMC8407328

Legend:
[1] = molecular target: T1, His-RcrR (Streptococcus mutans UA159) (UniProt Q8DUK6); test: EMSA
T1 sequence: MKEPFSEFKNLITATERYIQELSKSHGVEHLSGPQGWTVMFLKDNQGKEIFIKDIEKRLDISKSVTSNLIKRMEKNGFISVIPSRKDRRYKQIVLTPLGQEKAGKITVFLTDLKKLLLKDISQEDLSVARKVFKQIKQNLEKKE

[2] = molecular target: T1, His-RcrR (Streptococcus mutans UA159); test: DNase I footprinting

| Sequence | binding [1] | binding [2] |
| --- | --- | --- |
| AAAAACTCCTTTAAATTTCGTTAAGGATAATTTTGAGCAGTAAAAAAGCTCCTAATATAAAAATAGGAGCTGCCAAATAATAGGCTGGTTTTTTTTATAGATGGCTTCTCCCAAACATCCTTATGTAATTCTTCAATATGGTAACATGAAAATAGGGAAAAAGCAAATTTGTTCAATAAAGCCA (double strand) [P1 (rcrR promoter fragment 1)] | no binding |  |
| AGCGGTTTGAGCACTTTCACTACAGCGAAAAAGCAATCGTTTAAAGTGACTTTATCACCATCAAGCTATAAAAAATTAAATTAGTTCTCATAGAAACTTTTTTCTTGACAATAGTTTAAGGAATCATTATAATAGTTTTCATGAGAACTATTATAATATTCTCATAAAAAGTGAGGTGTTTTT (double strand) [P3 (rcrR promoter fragment 3)] | binds |  |
| AGCGGTTTGAGCACTTTCACTACAGCGAAAAAGCAATCGTTTAAAGTGACTTTATCACCATCAAGCTATAAAAAATTAAATTAGTTCTCATAGAAACTTTTTTCTTGACAATAGTTTAAGGAATCATTATAATAGTTTTCATGAGAACTATTATAATATTCTCATAAAAAGTGAGGTGTTTTT (double strand) [P3 FAM-labeled] |  | binds |
| GTCTTAGAAAGTAGTCAGAAGGATTAGACTTGTTTGGAAATGAATTATTCTTTTTATGGTTGTGGCTTTTCTTAAGTAATGAAGGCGAAAAGTGAATAGTCCAGCGGACTATTTTAGAAATTCAAGGGAGTTCCATTCTTTTTGGCGCCCCTAGGTCTTACCAACACCTCATGATAGAACTATA (double strand) [P2 (rcrR promoter fragment 2)] | no binding |  |
| TAAATTTTTCCTAGGTTAACCTAGTCCTCCTTTAATATGATAACAGTACGTTTACTTTTTCATTGTAAACGATTACAAATTTGTTGGCAAGTTGTCCATAGGAAAAAAGCGCAATTTTTGTTAAAATAAAGTCAGTTGTATGCATTTTTTTAGACAAATTAGATTGAATTGCTTA (double strand) [PSMU_2038 (trehalose PTS promoter)] | binds |  |
